{
  "source": "patent US20250276043A1",
  "about": "“Pharmaceutical Composition Containing GLP-1 Compound” (Gan & Lee Pharmaceuticals Co., Ltd., priority 2021, published 2025)",
  "key": {"[1]": {"test": "Chemical stability: related substances by HPLC after storage (Example 17)", "format": "physicochemical", "experimental": "The content of related impurities was determined using high-performance liquid chromatography (HPLC) on a Waters Kromasil 100-3.5-C8 (4.6*250 mm) column. The column temperature was set at 35° C., and the sample chamber temperature was set at 5° C. The elution was performed at a flow rate of 1.0 ml/min. The eluent consisted of the following components: • Phase A: 90 mM potassium dihydrogen phosphate and 10% acetonitrile (v/v), pH 2.4 • Phase B: 75% acetonitrile (v/v)\nThe gradient was as follows: linear change of 75%/25% A/B to 55%/45% A/B from 0 to 5 minutes, linear change from 5 to 12 minutes to 50%/50% A/B, linear change from 12 to 42 minutes to 40%/60% A/B, linear change from 42 to 60 minutes to 10%/90% A/B, linear change from 60 to 61 minutes to 75%/25% A/B, and steady gradient of 75%/25% A/B from 61 to 70 minutes.\nDetection wavelength was set at 214 nm, flow rate at 1.0 ml/min, and injection volume at 15 μl."}, "[2]": {"tested_on": "Kkay mice", "test": "Long-term pharmacodynamic study in type 2 diabetes Kkay mice (Example 18)", "format": "in vivo", "settings": "subcutaneous, 100 and 300 μg/kg; for Reduction in HbA1c (FIG. 5c): 48 hours after the final administration; for Hypoglycemic effect, blood glucose and AUC (FIGS. 5a-5b): once every 2 days, 16 doses", "experimental": "Compound 5 from Example 5 and Compound 2 from Example 2 were tested on type 2 diabetes Kkay mice. The mice were administered different doses of Compound 5 and Compound 2, at 100 and 300 μg/kg, respectively. The effects of the GLP-1 compounds in the GLP-1 pharmaceutical composition of the present invention on reducing blood glucose levels and HbA1c were measured.\nMale Kkay mice, 12-14 weeks old, were housed in suitable cages under barrier conditions with free access to standard food and purified water. The environmental conditions were controlled at a relative humidity of 40%-60% and a temperature of 22° C.-24° C. After an adaptation period of 1-2 weeks, the mice were used for the experiment.\nBasal blood glucose levels were assessed on the day of the experiment, and the mice were weighed. Based on random blood glucose and body weight, the diabetic mice were divided into a solvent group or a treatment group. The mice in the treatment group received subcutaneous injections of the GLP-1 compounds at doses of 100 and 300 μg/kg. The solvent consisted of propylene glycol (14 mg/ml), phenol (5.5 mg/ml), and disodium hydrogen phosphate (1.133 mg/ml) at pH 7.4.\nSubcutaneous administration was performed at the nape of the neck (50 μl/10 g body weight). The GLP-1 compound in the GLP-1 pharmaceutical composition of the present invention or the solvent were administered at approximately 10:00 am (time 0), once every 2 days for a total of 16 doses. Blood glucose levels in the mice were evaluated at 3 hours, 6 hours, 1 day, and 2 days after the initial administration. HbA1c was measured 48 hours after the final administration using EDTA anticoagulant."}, "[3]": {"settings": "oral semaglutide tablets (RYBELSUS) with SNAC, clinical studies; cited from earlier work"}},
  "data": [
    {"substance": "N-ε^26-[2-(2-[2-(2-[2-(2-[4-(21-carboxyheneicosanoylamino)-4(S) -carboxybutanoylamino]ethoxy)ethoxy]acetylamino)ethoxy]ethoxy)acetyl][Gly8, Arg34]GLP-1-(7-37) peptide [Compound 5]", "values": [
      {"measurement": "Maximum individual impurity %", "setting": "[1]; 25° C./60% RH, 15 month", "result": 0.97, "unit": "%"},
      {"measurement": "Purity of compound 5 %", "setting": "[1]; 25° C./60% RH, 15 month", "result": 96.14, "unit": "%"},
      {"measurement": "Total impurities %", "setting": "[1]; 25° C./60% RH, 15 month", "result": 3.86, "unit": "%"},
      {"measurement": "Maximum individual impurity %", "setting": "[1]; 30° C./65% RH, 1 month", "result": 0.76, "unit": "%"},
      {"measurement": "Purity of compound 5 %", "setting": "[1]; 30° C./65% RH, 1 month", "result": 96.85, "unit": "%"},
      {"measurement": "Total impurities %", "setting": "[1]; 30° C./65% RH, 1 month", "result": 3.15, "unit": "%"},
      {"measurement": "Maximum individual impurity %", "setting": "[1]; 30° C./65% RH, 2 month", "result": 1.03, "unit": "%"},
      {"measurement": "Purity of compound 5 %", "setting": "[1]; 30° C./65% RH, 2 month", "result": 96.67, "unit": "%"},
      {"measurement": "Total impurities %", "setting": "[1]; 30° C./65% RH, 2 month", "result": 3.33, "unit": "%"},
      {"measurement": "Maximum individual impurity %", "setting": "[1]; 30° C./65% RH, 3 month", "result": 0.93, "unit": "%"},
      {"measurement": "Purity of compound 5 %", "setting": "[1]; 30° C./65% RH, 3 month", "result": 95.19, "unit": "%"},
      {"measurement": "Total impurities %", "setting": "[1]; 30° C./65% RH, 3 month", "result": 4.81, "unit": "%"},
      {"measurement": "Maximum individual impurity %", "setting": "[1]; 30° C./65% RH, time 0", "result": 0.73, "unit": "%"},
      {"measurement": "Purity of compound 5 %", "setting": "[1]; 30° C./65% RH, time 0", "result": 96.5, "unit": "%"},
      {"measurement": "Total impurities %", "setting": "[1]; 30° C./65% RH, time 0", "result": 3.5, "unit": "%"},
      {"measurement": "Reduction in HbA1c (FIG. 5c)", "setting": "[2]", "result": "significant reduction in HbA1c"},
      {"measurement": "Hypoglycemic effect, blood glucose and AUC (FIGS. 5a-5b)", "setting": "[2]", "result": "significant hypoglycemic effects"}
    ]},
    {"substance": "semaglutide", "values": [
      {"measurement": "Bioavailability", "setting": "[3]", "result": "around 1%"}
    ]},
    {"substance": "N-ε^26-[2-(2-[2-(4-[19-carboxynonadecanoylamino]-4(S) -carboxybutanoylamino)ethoxy]ethoxy)acetyl][Gly8, Arg34]GLP-1-(7-37) peptide [Compound 2]", "values": [
      {"measurement": "Reduction in HbA1c (FIG. 5c)", "setting": "[2]", "result": "significant reduction in HbA1c"},
      {"measurement": "Hypoglycemic effect, blood glucose and AUC (FIGS. 5a-5b)", "setting": "[2]", "result": "significant hypoglycemic effects"}
    ]}
  ]
}
